# Measurements from US12565665B2, “Compositions and methods for controlled mRNA translation and stability” (TRUSTEES OF BOSTON UNIVERSITY, priority 2022, dated 2026).
# B1: dual-input iADAR: N-terminal BAD, ALFA-PE at 5' RNA binding site, ADAR2-DD (F697Y), tandem AlfaNb and Bcl-xL at C-terminus (protein)
# chain: MASNFTQFVLVDNGGTGDVTVAPSNFANGIAEWISSNSRSQAYKVTCSVRQSSAQNRKYTIKVEVPKGAWRSYLNMELTIPIFATNSDCELIVKAMQGLLKDGNPIPSAIAANSGIYGGSGSGAGSGSPAGGGAPGSGGGSTGAPPNLWAAQRYGRELRRMSDEFVDSFKKASQLHLPQVLADAVSRLVLGKFGDLTDNFSSPHARRKVLAGVVMTTGTDVKDAKVISVSTGTKCINGEYMSDRGLALNDCHAEIISRRSLLRFLYTQLELYLNNKDDQKRSIFQKSERGGFRLKENVQFHLYISTSPCGDARIFSPHEPILEEPAASGSGPGRLEEELRRRLSPGTGDRHPNRKARGQLRTKIESGQGTIPVRSNASIQTWDGVLQGERLLTMSCSDKIARWNVVGIQGSLLSIFVEPIYFSSIILGSLYHGDHLSRAMYQRISNIEDLPPLYTLNKPLLSGISNAEARQPGKAPNFSVNWTVGDSAIEVINATTGKDELGRASRLCKHALYCRWMRVHGKVPSHLLRSKITKPNVYHESKLAAKEYQAAKARLFTAFIKAGLGAWVEKPTEQDQYSLTGSGGTAEVQLQESGGGLVQPGGSLRLSCTASGVTISALNAMAMGWYRQAPGERRVMVAAVSERGNAMYRESVQGRFTVTRDFTNKMVSLQMDNLKPEDTAVYYCHVLEDRVDSFHDYWGQGTQVTVSSGAGSGASSNRELVVDFLSYKLSQKGYSWSQFSDVEENRTEAPEGTESEMETPSAINGNPSWHLADSPAVNGATGHSSSLDAREVIPMAAVKQALREAGDEFELRYRRAFSDLTSQLHITPGTAYQSFEQVVNELFRDGVNWGRIVAFFSFGGALCVESVDKEMQVLVSRIAAWMATYLNDHLEPWIQENGGWDTFVELYGNNGSSELIKENMHMKLYMEGTVDNHHFKCTSEGEGKPYEGTQTMRIKVVEGGPLPFAFDILATSFLYGSKTFINHTQGIPDFFKQSFPEGFTWERVTTYEDGGVLTATQDTSLQDGCLIYNVKIRGVNFTSNGPVMQKKTLGWEAFTETLYPADGGLEGRNDMALKLVGGSHLIANIKTTYRSKKPAKNLKMPGVYYVDYRLERIKEANNETYVEQHEVAVARYCDLPSKLGHKLN
# Legend:
# editable stop codons = experiment: Transfection of in vitro transcribed iADAR mRNA circuits, flow cytometry (mNeonGreen positive cells); type: cell-based, human; settings: 100 ng mRNA; positive = greater than top 1% of non-transfected cells; ~48 hours
# Method: In this case, the dADAR and ADAR constructs serve as negative and positive controls respectively. For the BAD(V) construct, cells only express mNeonGreen if A-1331852 is present during the transfection (see e.g., FIG. 61B).
# To test this, the 3′ end of the plasmid was subsequently digested using Pmel, a DNA clean-up was performed, ARCA-capped mRNA was transcribed with T7 polymerase, the remaining DNA were digested with DNAse I, and a poly-A tail was added with E. coli Poly(A) Polymerase (all reagents and protocols from NEW ENGLAND BIO's HiScribe® T7 ARCA mRNA Kit (with tailing)). 70,000 HEK293FT cells were then transfected in suspension with 100 ng of each mRNA construct using Lipofectamine™ MessengerMAX™ Transfection Reagent. Cells were also treated with either DMSO or 1 μM of A-1331852. ˜48 hours after transfection, cells were analyzed by flow cytometry. mNeonGreen positive cells were determined as greater than the top 1% of gated non-transfected HEK cells (NT).
# NS3a-genotype 1b = NS3a-genotype 1b (Hepatitis C virus genotype 1b, UniProt P26662); settings: disrupted by NS3a-targeting drugs; read-out: affinity of basal complex; cited from earlier work
# 4×UAG MS2 reporter = 4×UAG MS2 reporter co-transfected with iADAR variants, flow cytometry; type: cell-based, human; settings: 48 hours, n=3
# Method: HEK293FT cells were co-transfected with the dual-input iADAR, the 4×UAG-MS2 reporter, and either EGFP(R96M) or EGFP(R96M)-AlfaTag on day 0. At the time of transfection, 500 nM of A-1331852 or DMSO was added to their respective conditions. 48 hours after transfection, cells were lifted and run via flow cytometry. The median mCherry to mNeonGreen ratio was computed for transfected cells were gated by BFP expression and mCherry expression. The experiment was then analyzed via one-way ANOVA (n=3 transfected cell populations per condition).
# HEK293FT cells were co-transfected with the 4×UAG MS2 reporter and either an MCP-ADAR containing a peptide insertion at the 5′ RNA binding site (see e.g., FIG. 34b, Pep), grazoprevir iADAR (Pep-NS3) or a mutant version of the iADAR (Pep-NS3 (K690R)). At the time of transfection, 3 μM of DMSO or grazoprevir was added. 48 hours after transfection, cells were lifted and run via flow cytometry. […] The experiment was then analyzed via two-way ANOVA (n=3 transfected cell populations per condition).
# To test this, LINC-ADAR constructs were created with WT, L699G, or F697Y mutations (see e.g., FIG. 35b) and HEK293FT cells were co-transfected with them and the 4×UAG-MS2 reporter in the presence of 2 μM grazoprevir or DMSO vehicle. 48 hours after transfection and drug treatment, cells were lifted and analyzed by flow cytometry. […]
molecule,measurement,setting,value
MCP_ADAR2-DD(E396A & E488Q)_mCherry_FLAG_P2A_T2A_loop(UAG-UAG)_MS2(C)_HaloTag_loop(UAG-UAG)_MS2(C)_P2A_T2A HA_mNeonGreen(M10K) [dADAR mRNA],population of mNeonGreen positive cells,editable stop codons,insignificant population
"apo NS3a reader peptide, SEQ ID NO: 261, GELDELVYLLDGPGYDPIHSD [ANR]",Kd,NS3a-genotype 1b,10 nM
MCP_ADAR2-DD(E488Q)_mCherry_FLAG_P2A_T2A_loop(UAG-UAG)_MS2(C)_HaloTag_loop(UAG-UAG)_MS2(C)_P2A_T2A_HA_mNeonGreen(M10K) [ADAR mRNA],population of mNeonGreen positive cells,editable stop codons,significant population of mNeonGreen positive cells
B1,"median relative fluorescence with both A-1331852 and EGFP(R96M)-AlfaTag, fold greater than AlfaTag alone",4×UAG MS2 reporter; 500 nM of A-1331852,~4.6 ×
same,median relative fluorescence with AlfaTag and DMSO vs negative condition or A-1331852 treatment,4×UAG MS2 reporter; one-way ANOVA,significantly higher
